Literature values as cited in article PMC11166923.

Target: integrin β1D cytoplasmic tail (Homo sapiens) (UniProt P05556)
Chain of UniProt P05556 (P05556 752-798): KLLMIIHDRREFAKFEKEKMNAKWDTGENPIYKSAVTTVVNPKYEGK

Talin-2 (from UniProt Q9Y4G6)
Kd: 30 µM
